Reference: paper PMC9891525
Read-outs that look alike come from different tables or passages of the source.

How the values were obtained:
[1] = target: biotinylated recombinant SARS-CoV-2 wild type spike RBD (UniProt P0DTC2); details: n = 2 replicates; parent: est. 110; read off a plot
[2] = target: biotinylated recombinant SARS-CoV-2 wild type spike RBD (UniProt P0DTC2); details: n = four independent experiments; read off a plot
[3] = target: biotinylated recombinant SARS-CoV-2 wild type spike RBD (UniProt P0DTC2); details: n = 2 replicates; parent: est. 100; read off a plot
[4] = target: biotinylated recombinant SARS-CoV-2 wild type spike RBD (UniProt P0DTC2); details: n = 2 replicates; parent: est. 100; read off a plot; remark: listed apart in the source

“REGN10987 scFv displayed on the surface of HEK 293T cells S97Y; D54T; N57H” gave a percent of parent (Relative fluorescence) [1] of 240.

“REGN10987 scFv displayed on the surface of HEK 293T cells D54I” was tested, and the enrichment [2] was 3.2 log2(FC) and the percent of parent (Relative fluorescence) [3] was 110.

Work on “REGN10987 scFv displayed on the surface of HEK 293T cells L106N; N57F” yielded a percent of parent (Relative fluorescence) [4] of 120.

In the case of “REGN10987 scFv displayed on the surface of HEK 293T cells S97Y; N57H”, the percent of parent (Relative fluorescence) [1] is reported as 200.

Work on “REGN10987 scFv displayed on the surface of HEK 293T cells D54F” yielded a percent of parent (Relative fluorescence) [3] of 97.

In the case of “REGN10987 scFv displayed on the surface of HEK 293T cells S97Y; D54I”, the percent of parent (Relative fluorescence) [1] is reported as 220.

For “REGN10987 scFv displayed on the surface of HEK 293T cells L106N; N57T”, the percent of parent (Relative fluorescence) [4] was 130.

“REGN10987 scFv displayed on the surface of HEK 293T cells S97Y” showed a percent of parent (Relative fluorescence) [3] of 150.

“REGN10987 scFv displayed on the surface of HEK 293T cells S97Y; D54L” gave a percent of parent (Relative fluorescence) [1] of 220.

In the case of “REGN10987 scFv displayed on the surface of HEK 293T cells S97Y; D54F; N57H”, the percent of parent (Relative fluorescence) [1] is reported as 110.

Work on “REGN10987 scFv displayed on the surface of HEK 293T cells D54L” yielded a percent of parent (Relative fluorescence) [3] of 130.

With “REGN10987 scFv displayed on the surface of HEK 293T cells S97Y; D54T” the percent of parent (Relative fluorescence) [1] was 220.

“REGN10987 scFv displayed on the surface of HEK 293T cells S97Y; D54F” showed a percent of parent (Relative fluorescence) [1] of 100.

Substance “REGN10987 scFv displayed on the surface of HEK 293T cells D54Y” has a percent of parent (Relative fluorescence) [3] of 82.

“REGN10987 scFv displayed on the surface of HEK 293T cells S97Y; D54Y” gave a percent of parent (Relative fluorescence) [1] of 130.

Work on “REGN10987 scFv displayed on the surface of HEK 293T cells D54T” yielded a percent of parent (Relative fluorescence) [3] of 120.

Substance “REGN10987 scFv displayed on the surface of HEK 293T cells S97Y; D54Y; N57H” has a percent of parent (Relative fluorescence) [1] of 160.

For “REGN10987 scFv displayed on the surface of HEK 293T cells N57H”, the percent of parent (Relative fluorescence) [3] was 120.
